Tests used:
[1] = biological target: T1, PdhR (his-tagged) (Escherichia coli, UniProt P0ACL9 1-254); assay: EMSA; 0.1 pmol DNA, 54 pmol PdhR; EMSA as in ref 7; 0.1 pmol of each DNA fragment with 54 pmol PdhR; buffer, salt, pH and temperature not given; settings: protein: recombinant, tags: His, chain copies: 2, label: 5'DY682 (strand 1), 5'DY782 (strand 2)
[2] = biological target: T1, PdhR (his-tagged); assay: EMSA; 0.1 pmol DNA, 54 pmol PdhR; same binding activity as pdhR site; EMSA as in ref 7; 0.1 pmol of each DNA fragment with 54 pmol PdhR; buffer, salt, pH and temperature not given; settings: protein: recombinant; tags: His; chain copies: 2; label: 5'DY682 (strand 1); 5'DY782 (strand 2); blunt

T1 sequence (P0ACL9 whole entry, the tested form may be a part): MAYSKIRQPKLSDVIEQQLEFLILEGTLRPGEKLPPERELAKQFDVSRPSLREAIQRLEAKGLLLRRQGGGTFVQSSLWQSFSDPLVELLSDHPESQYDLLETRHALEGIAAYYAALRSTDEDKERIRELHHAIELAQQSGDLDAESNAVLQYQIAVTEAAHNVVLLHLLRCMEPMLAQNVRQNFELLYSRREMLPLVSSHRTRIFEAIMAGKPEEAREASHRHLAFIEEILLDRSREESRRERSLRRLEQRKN

B1: PdhRop (dsDNA)
DNA 1: GCCGAAGTCAATTGGTCTTACCAATTTCATGTCTGTG
DNA 2: CACAGACATGAAATTGGAAGACCAATTGACTTCGGC
binding result ([1]; printed strands not exact complements: S23 lacks one T opposite an A of S22 (37/36 nt; possible misprint)): binds

B2: MetBop (dsDNA)
DNA 1: AACGGCTATTTGGGATTTGCTCAATCTATACGCAAAGAAGTTT
DNA 2: AAACTTCTTTGCGTATAGATTGAGCAAATCCCAAATAGCCGTT
binding result ([1]; blunt): no binding

B3: GlcDop (dsDNA)
DNA 1: CTATCTCTTTAGCTACCGGTCAGACCATTTTTTTTCCAGCTCT
DNA 2: AGAGCTGGAAAAAAAATGGTCTGACCGGTAGCTAAAGAGATAG
binding result [2]: binds
